Data from patent publication US8795990B2, “Recombinant enzyme with altered feedback sensitivity” (Metabolic Explorer, priority 2004, dated 2014).
Where a chain is given by its changes, count along the chain named. In names and notes the source's numbering stands. In brackets after ≈: the same amount, converted by molar mass.

Legend:
E. coli = settings: growth rate of E. coli; cited from earlier work
[1] = biological target: homoserine transsuccinylase enzyme MetA (Escherichia coli, UniProt P07623); settings: in words; cited from earlier work
Chain of homoserine transsuccinylase enzyme MetA (P07623 whole entry): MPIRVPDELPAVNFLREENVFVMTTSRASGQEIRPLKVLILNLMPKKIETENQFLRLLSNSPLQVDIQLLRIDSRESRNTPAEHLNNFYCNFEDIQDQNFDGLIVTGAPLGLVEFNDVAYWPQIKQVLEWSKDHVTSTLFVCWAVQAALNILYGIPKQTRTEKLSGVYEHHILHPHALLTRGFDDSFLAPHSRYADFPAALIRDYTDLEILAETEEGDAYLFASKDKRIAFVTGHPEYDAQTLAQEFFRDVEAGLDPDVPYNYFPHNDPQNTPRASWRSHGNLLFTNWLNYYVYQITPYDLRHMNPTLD

[2] = tested on: S-adenosylmethionine synthetase; assay: S-adenosylmethionine synthetase (MAT) activity in vitro in crude extracts, FIA-MS/MS; type: biochemical, E. coli; settings: 10 mM methionine, 10 mM ATP, 37° C., 30 minutes
[3] = tested on: homoserine transsuccinylase; assay: Homoserine transsuccinylase activity in vitro in crude extracts, succinylhomoserine quantified by GC-MS, with or without methionine and S-adenosylmethionine; settings: for MetA activity of clones in pTRC99A: alleles cloned in pTRC99A with an alanine between amino acid 1M and 2P
Protocol: The activity of homoserine transsuccinylase was determined in vitro E. coli strains carrying either wild-type or mutant-enzymes were cultured in rich medium with 2.5 g/l glucose and harvested at late log phase. Cells were resuspended in cold potassium phosphate buffer and sonicated on ice (Branson sonifier, 70W). After centrifugation, proteins contained in the supernatants were quantified (Bradford, 1976).
Ten μl of the extracts were incubated for 30 minutes at 25° C. with 30 mM homoserine and 4 mM succinyl-CoA. Methionine and/or S-adenosylmethionine were added as indicated. The succinylhomoserine produced by homoserine transsuccinylase enzymes was quantified by GC-MS after derivatization with tert-butyldimethylsilyltrifluoroacetamide (TBDMSTFA). L-Serine[1-13C] was included as an internal standard.

[4] = Methionine 0 mM, S-adenosylmethionine 0 mM, rich medium extracts
[5] = Methionine 0 mM, S-adenosylmethionine 0.1 mM
[6] = Methionine 0 mM, S-adenosylmethionine 1 mM
[7] = Methionine 10 mM, S-adenosylmethionine 0 mM
[8] = Methionine 10 mM, S-adenosylmethionine 0.1 mM
[9] = Methionine 10 mM, S-adenosylmethionine 1 mM

**Q.** With `CSCC[C@](C)(N)C(=O)O` [α-methylmethionine] as the molecule, how does the “minimal concentration for a maximal inhibition” value (E. coli) read?
**A.** Its value is 5 µg/mL.

**Q.** And the minimal inhibitory concentration (E. coli)?
**A.** The minimal inhibitory concentration was 1 mg/L (≈ 6.13 µM).

**Q.** And the “inhibition of homoserine transsuccinylase enzyme MetA” value [1]?
**A.** Its value is “potent inhibitor”.

B1: MetK* T227I (protein, UniProt P0A817 2-384, looked up, variant T227I)
S-adenosylmethionine synthase: AKHLFTSESVSEGHPDKIADQISDAVLDAILEQDPKARVACETYVKTGMVLVGGEITTSAWVDIEEITRNTVREIGYVHSDMGFDANSCAVLSAIGKQSPDINQGVDRADPLEQGAGDQGLMFGYATNETDVLMPAPITYAHRLVQRQAEVRKNGTLPWLRPDAKSQVTFQYDDGKIVGIDAVVLSTQHSEEIDQKSLQEAVMEEIIKPILPAEWLTSATKFFINPIGRFVIGGPMGDCGLTGRKIIVDTYGGMARHGGGAFSGKDPSKVDRSAAYAARYVAKNIVAAGLADRCEIQVSYAIGVAEPTSIMVETFGTEKVPSEQLTLLVREFFDLRPYGLIQMLDLLHPIYKETAAYGHFGREHFPWEKTDKAQLLRDAAGLK
**Q.** Which “MAT (S-adenosylmethionine synthetase activity)” value (from here on “MAT”) [2] does the source give for B1 here?
**A.** The value was 4.9 mUI/mg prot.

B2: MetK* S59N + G105S (protein, UniProt P0A817 2-384, looked up, variant S59N G105S)
S-adenosylmethionine synthase: B1 S-adenosylmethionine synthase with S59N, G105S, I227T
**Q.** With B2 as the molecule, how does the “MAT” value [2] read?
**A.** The value was 2.9 mUI/mg prot.

B3: MetK* R161C + P235S (protein, UniProt P0A817 2-384, looked up, variant R161C P235S)
S-adenosylmethionine synthase: B1 S-adenosylmethionine synthase with R161C, I227T, P235S
**Q.** With B3 as the molecule, how does the “MAT” value [2] read?
**A.** The value was 0.7 mUI/mg prot.

B4: WT: wild-type E. coli S-adenosylmethionine synthetase (MetK) (protein, UniProt P0A817 2-384, looked up)
S-adenosylmethionine synthase: B1 S-adenosylmethionine synthase with I227T
**Q.** For B4, which “MAT” value [2] is on record?
**A.** Its value is 7.5 mUI/mg prot.

B5: MetK* H143T (protein, UniProt P0A817 2-384, looked up, variant H143T)
S-adenosylmethionine synthase: B1 S-adenosylmethionine synthase with H142T, I227T
**Q.** Which “MAT” value [2] does the source give for B5 here?
**A.** The value was 2.5 mUI/mg prot.

B6: MetK* G105S (protein, UniProt P0A817 2-384, looked up, variant G105S)
S-adenosylmethionine synthase: B1 S-adenosylmethionine synthase with G105S, I227T
**Q.** Which “MAT” value [2] does the source give for B6 here?
**A.** The value was 2.8 mUI/mg prot.

B7: MetK* P137L (protein, UniProt P0A817 2-384, looked up, variant P137L)
S-adenosylmethionine synthase: B1 S-adenosylmethionine synthase with P137L, I227T
**Q.** For B7, which “MAT” value [2] is on record?
**A.** Its value is 1.2 mUI/mg prot.

B8: MetK* G115S (protein, UniProt P0A817 2-384, looked up, variant G115S)
S-adenosylmethionine synthase: B1 S-adenosylmethionine synthase with G115S, I227T
**Q.** Which “MAT” value [2] does the source give for B8 here?
**A.** Its value is 0.4 mUI/mg prot.

B9: MetK* H189Y (protein, UniProt P0A817 2-384, looked up, variant H189Y)
S-adenosylmethionine synthase: B1 S-adenosylmethionine synthase with H189Y, I227T
**Q.** With B9 as the molecule, how does the “MAT” value [2] read?
**A.** Its value is 0.6 mUI/mg prot.

B10: metA: wild-type E. coli homoserine transsuccinylase (metA gene, strain MG1655) (protein, UniProt P07623 2-309, looked up)
Homoserine …: PIRVPDELPAVNFLREENVFVMTTSRASGQEIRPLKVLILNLMPKKIETENQFLRLLSNSPLQVDIQLLRIDSRESRNTPAEHLNNFYCNFEDIQDQNFDGLIVTGAPLGLVEFNDVAYWPQIKQVLEWSKDHVTSTLFVCWAVQAALNILYGIPKQTRTEKLSGVYEHHILHPHALLTRGFDDSFLAPHSRYADFPAALIRDYTDLEILAETEEGDAYLFASKDKRIAFVTGHPEYDAQTLAQEFFRDVEAGLDPDVPYNYFPHNDPQNTPRASWRSHGNLLFTNWLNYYVYQITPYDLRHMNPTLD
**Q.** Which Specific activity [3, 4] does the source give for B10 here?
**A.** The Specific activity was 36.7 mUI/mg proteins.

**Q.** What about the Specific activity [3, 5] of the same molecule?
**A.** The Specific activity was 27.9 mUI/mg proteins.

**Q.** What about the Specific activity [3, 6] of the same molecule?
**A.** Its Specific activity is 4.7 mUI/mg proteins.

**Q.** And the Specific activity [3, 7]?
**A.** Its Specific activity is 0.4 mUI/mg proteins.

**Q.** What about the Specific activity [3, 8] of the same molecule?
**A.** The Specific activity was 0.2 mUI/mg proteins.

**Q.** What about the Specific activity [3, 9] of the same molecule?
**A.** Its Specific activity is 0.1 mUI/mg proteins.

**Q.** What about the “MetA activity of clones in pTRC99A” value [3] of the same molecule?
**A.** Its value is “vary low”.

B11: metA*11: mutant homoserine transsuccinylase allele, CAG exchanged for GAG, Q replaced by E (Q64E) (protein, UniProt P07623 2-309, looked up, variant Q64E)
Homoserine …: B10 Homoserine … with Q63E
**Q.** What does the source list for B11?
**A.** Specific activity [3, 4]: 19.2 mUI/mg proteins; Specific activity [3, 5]: 21.7 mUI/mg proteins; Specific activity [3, 6]: 18.5 mUI/mg proteins; Specific activity [3, 7]: 18.7 mUI/mg proteins; Specific activity [3, 8]: 16.9 mUI/mg proteins; Specific activity [3, 9]: 2.7 mUI/mg proteins; MetA activity of clones in pTRC99A [3]: vary low
